{
  "source": "patent US20130331690A1",
  "about": "“VASCULAR IMAGING AGENTS” (GE HEALTHCARE AS, priority 2010, published 2013)",
  "key": {"[1]": {"conditions": "of the fluorescence efficiency of fluorescein; cited from earlier work"}, "[2]": {"assay": "Blood clearance vs time, bi-phasic exponential decay curve fit", "assay_type": "in vivo, rat", "conditions": "rats"}, "MatBIII tumour model": {"tested_on": "MatBIII tumour model", "assay": "In vivo fluorescence imaging in the rat MatBIII tumour model", "conditions": "fluorescence image 1 hour after iv injection, FIG. 2", "protocol": "(§1) In vivo studies were carried out with female Fischer 344 rats or severe combined immunodeficient (SCID) mice, each with an age between 4 and 8 weeks. Animals were housed with non-fluorescent food (Harlan Labs, cat. #TD.97184) and water ad libitum and a standard 12 hour day-night lighting cycle. 1×10^6 cells (100 μL) were injected, using a 27 gauge needle, directly orthotopically into the mammary fat pad of the animal. After allowing 7 days for MatBIII tumor growth (˜1 cm in diameter), animals were injected with test agent and imaged.\nCompound 1 was studied in the MatBIII model described in Example 3. The dose was either 125 or 250 nmol dye/kg body weight. The fluorescence imaging system was comprised of a 12 bit cooled CCD camera (Hamamatsu ORCA), and with a 735 laser source providing the excitation light. The fluorescence signal was filtered with a band pass emission filter set (810 nm centre frequency, 90 nm bandwidth). 50 ms exposure time was used with 2×2 binning.\nFor immobilisation during the optical imaging procedure, the animals were anaesthetized in a coaxial open mask to surgical level anaesthesia with Isoflurane (typically 2-3%) with oxygen as the carrier gas. During injection and intermediate time point imaging a lighter anaesthesia level was used. The animals were imaged from above, lying on their backs. […]"}, "[3]": {"assay": "Optical biodistribution (ADME profile) in MatBIII orthotopic tumor model", "assay_type": "in vivo, rat", "conditions": "for Biodistribution, Bladder / Biodistribution, Blood / Biodistribution, Eye / Biodistribution, Kidney / Biodistribution, Liver / Biodistribution, Skin / Biodistribution, Spleen / Biodistribution, Tumor: MatBIII tumor-bearing rats, 125 nmol/kg", "protocol": "as §1\nThe ADME profile of Compound 1 was studied by performing optical biodistribution studies in the MatB III in vivo orthotopic tumor model. Thus, a dose of 125 nmol/kg (volume ˜250-300 μL) was used for the study with an equal volume of PBS used as a negative control. For naïve animals, each tissue type was split into four tubes to ensure sufficient volume for standard preparation. Tissues included blood, bladder/urine, liver, kidney, spleen, eyes, fat, muscle, tumor, and skin collected from the contralateral side from tumor. Using the supernatant from naïve samples (pooled by tissue type), standards were made by adding agent at concentrations of 75 μM, 37.5 μM, 3.75 μM, 0.375 μM and 0 μM, dilutions made with PBS. This yielded a final concentration of 20% injected dose (ID), 10%, 1%, […] and 0. To determine the amount of dye contained in each tissue type, 90 μL of sample or standard was read on a spectrophotometer at settings of 710 excitation/805 Emission.\nSamples were adjusted for weight, but there was some sample-to-sample variation."}},
  "data": [
    {"compound": "CC1(C)C(/C=C/C=C/C=C/C=C2\\N(CCCCS(=O)(=O)O)c3ccc4ccccc4c3C2(C)C)=[N+](CCCCS(=O)(=O)[O-])c2ccc3ccccc3c21", "note": "[ICG, indocyanine green]", "values": [
      {"measurement": "Fluorescence efficiency relative to fluorescein", "setting": "[1]", "value": 4, "unit": "%"}
    ]},
    {"compound": "Bis-Cy7 PEG-31k Conjugate [Compound 1]", "values": [
      {"measurement": "Blood half-life t1/2α", "setting": "[2]", "value": 4.6, "unit": "min"},
      {"measurement": "Blood half-life t1/2β", "setting": "[2]", "value": 4.33, "unit": "h"},
      {"measurement": "Image contrast of blood vessels and blood-rich tumour", "setting": "MatBIII tumour model", "value": "positive image contrast"},
      {"measurement": "Retention of the agent in all of the collected tissues", "setting": "[3]; 48 h post injection", "value": "< 1", "unit": "% ID/g"},
      {"measurement": "Biodistribution, Bladder", "setting": "[3]; 2 min", "value": 0.00, "unit": "% ID/g"},
      {"measurement": "Biodistribution, Blood", "setting": "[3]; 2 min", "value": 6.56, "unit": "% ID/g"},
      {"measurement": "Biodistribution, Eye", "setting": "[3]; 2 min", "value": 1.93, "unit": "% ID/g"},
      {"measurement": "Biodistribution, Kidney", "setting": "[3]; 2 min", "value": 0.12, "unit": "% ID/g"},
      {"measurement": "Biodistribution, Liver", "setting": "[3]; 2 min", "value": 0.24, "unit": "% ID/g"},
      {"measurement": "Biodistribution, Skin", "setting": "[3]; 2 min", "value": 0.00, "unit": "% ID/g"},
      {"measurement": "Biodistribution, Spleen", "setting": "[3]; 2 min", "value": 0.64, "unit": "% ID/g"},
      {"measurement": "Biodistribution, Tumor", "setting": "[3]; 2 min", "value": 0.00, "unit": "% ID/g"},
      {"measurement": "Biodistribution, Bladder", "setting": "[3]; 5 min", "value": 0.23, "unit": "% ID/g"},
      {"measurement": "Biodistribution, Blood", "setting": "[3]; 5 min", "value": 5.65, "unit": "% ID/g"},
      {"measurement": "Biodistribution, Eye", "setting": "[3]; 5 min", "value": 0.14, "unit": "% ID/g"},
      {"measurement": "Biodistribution, Kidney", "setting": "[3]; 5 min", "value": 1.35, "unit": "% ID/g"},
      {"measurement": "Biodistribution, Liver", "setting": "[3]; 5 min", "value": 0.46, "unit": "% ID/g"},
      {"measurement": "Biodistribution, Skin", "setting": "[3]; 5 min", "value": 0.56, "unit": "% ID/g"},
      {"measurement": "Biodistribution, Spleen", "setting": "[3]; 5 min", "value": 0.64, "unit": "% ID/g"},
      {"measurement": "Biodistribution, Tumor", "setting": "[3]; 5 min", "value": 0.53, "unit": "% ID/g"},
      {"measurement": "Biodistribution, Bladder", "setting": "[3]; 10 min", "value": 1.24, "unit": "% ID/g"},
      {"measurement": "Biodistribution, Blood", "setting": "[3]; 10 min", "value": 4.26, "unit": "% ID/g"},
      {"measurement": "Biodistribution, Eye", "setting": "[3]; 10 min", "value": 1.70, "unit": "% ID/g"},
      {"measurement": "Biodistribution, Kidney", "setting": "[3]; 10 min", "value": 0.41, "unit": "% ID/g"},
      {"measurement": "Biodistribution, Liver", "setting": "[3]; 10 min", "value": 0.03, "unit": "% ID/g"},
      {"measurement": "Biodistribution, Skin", "setting": "[3]; 10 min", "value": 0.00, "unit": "% ID/g"},
      {"measurement": "Biodistribution, Spleen", "setting": "[3]; 10 min", "value": 1.00, "unit": "% ID/g"},
      {"measurement": "Biodistribution, Tumor", "setting": "[3]; 10 min", "value": 0.00, "unit": "% ID/g"},
      {"measurement": "Biodistribution, Bladder", "setting": "[3]; 60 min", "value": 0.86, "unit": "% ID/g"},
      {"measurement": "Biodistribution, Blood", "setting": "[3]; 60 min", "value": 3.05, "unit": "% ID/g"},
      {"measurement": "Biodistribution, Eye", "setting": "[3]; 60 min", "value": 0.33, "unit": "% ID/g"},
      {"measurement": "Biodistribution, Kidney", "setting": "[3]; 60 min", "value": 0.51, "unit": "% ID/g"},
      {"measurement": "Biodistribution, Liver", "setting": "[3]; 60 min", "value": 1.02, "unit": "% ID/g"},
      {"measurement": "Biodistribution, Skin", "setting": "[3]; 60 min", "value": 0.05, "unit": "% ID/g"},
      {"measurement": "Biodistribution, Spleen", "setting": "[3]; 60 min", "value": 0.28, "unit": "% ID/g"},
      {"measurement": "Biodistribution, Tumor", "setting": "[3]; 60 min", "value": 0.00, "unit": "% ID/g"},
      {"measurement": "Biodistribution, Bladder", "setting": "[3]; 180 min", "value": 0.00, "unit": "% ID/g"},
      {"measurement": "Biodistribution, Blood", "setting": "[3]; 180 min", "value": 2.19, "unit": "% ID/g"},
      {"measurement": "Biodistribution, Eye", "setting": "[3]; 180 min", "value": 0.12, "unit": "% ID/g"},
      {"measurement": "Biodistribution, Kidney", "setting": "[3]; 180 min", "value": 0.63, "unit": "% ID/g"},
      {"measurement": "Biodistribution, Liver", "setting": "[3]; 180 min", "value": 2.04, "unit": "% ID/g"},
      {"measurement": "Biodistribution, Skin", "setting": "[3]; 180 min", "value": 0.06, "unit": "% ID/g"},
      {"measurement": "Biodistribution, Spleen", "setting": "[3]; 180 min", "value": 0.32, "unit": "% ID/g"},
      {"measurement": "Biodistribution, Tumor", "setting": "[3]; 180 min", "value": 0.05, "unit": "% ID/g"},
      {"measurement": "Biodistribution, Bladder", "setting": "[3]; 2880 min", "value": 0.00, "unit": "% ID/g"},
      {"measurement": "Biodistribution, Blood", "setting": "[3]; 2880 min", "value": 0.02, "unit": "% ID/g"},
      {"measurement": "Biodistribution, Eye", "setting": "[3]; 2880 min", "value": 0.44, "unit": "% ID/g"},
      {"measurement": "Biodistribution, Kidney", "setting": "[3]; 2880 min", "value": 0.00, "unit": "% ID/g"},
      {"measurement": "Biodistribution, Liver", "setting": "[3]; 2880 min", "value": 0.23, "unit": "% ID/g"},
      {"measurement": "Biodistribution, Skin", "setting": "[3]; 2880 min", "value": 0.00, "unit": "% ID/g"},
      {"measurement": "Biodistribution, Spleen", "setting": "[3]; 2880 min", "value": 0.00, "unit": "% ID/g"},
      {"measurement": "Biodistribution, Tumor", "setting": "[3]; 2880 min", "value": 0.61, "unit": "% ID/g"}
    ]}
  ]
}
